The source of these data is patent US20090263894A1 (AbbVie / Abbott, published 2009).

Where a chain is given by its changes, count along the chain named. A value given as a limit tells only on which side of the number the result lay.

Assay [1] deals with T1, NGAL rAg K15A displayed on yeast (human, UniProt P80188 21-198).
T1 construct: Yeast display AGA2 fusion as m5
T1 chain: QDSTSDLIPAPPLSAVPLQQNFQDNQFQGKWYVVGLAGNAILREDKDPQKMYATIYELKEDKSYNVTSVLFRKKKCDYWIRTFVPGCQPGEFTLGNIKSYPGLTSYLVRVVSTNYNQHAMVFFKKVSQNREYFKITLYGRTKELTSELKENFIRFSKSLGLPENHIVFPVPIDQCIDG
The experiment in a line: flow cytometry, mAb titrated on yeast displaying NGAL; from the highest mAb concentration tested. As for the experimental part:
(§1) The side chain of each of the NGAL rAg residues identified from the epitope selections was altered by site-directed mutagenesis to alanine to confirm the functional epitope (direct contact residues) of each NGAL mAb subclone.
(§2) The change in Gibbs free binding energy (ΔΔG_Ala-WT) was determined to assess the energetic impact of each alanine substitution for mAb binding. The change in Gibbs free binding energy upon alanine substitution was calculated using the following equation [2],
(§3) For these experiments, observed fluorescence (F) was used to solve for KD using equation [1]. The KD derived from equation [1] one was then used in equation [2] to derive the change in Gibbs free binding energy upon alanine substitution. The KD is read from the abscissa of each of the curves at the inflection point.

The target of assay [2] is T2, NGAL rAg R109A displayed on yeast (human, UniProt P80188 21-198).
T2 construct: Yeast display AGA2 fusion as m5
T2 chain: T1 chain with A15K, R109A
Described as above. As for the experimental part: as §1, §2, §3

Assay [3] addresses T3, wild-type NGAL antigen displayed on yeast (AGA2 fusion) (human, UniProt P80188 21-198).
T3 construct: also called WT
In words: flow cytometry titration of the mAb on yeast displaying the NGAL antigen, detection with GaM-PE, fractional binding.

Assay [4] deals with T4, NGAL rAg S112A displayed on yeast (human, UniProt P80188 21-198).
T4 construct: Yeast display AGA2 fusion as m5
T4 chain: T1 chain with A15K, S112A
The assay is described as above.

The target in assay [5] is T5, NGAL rAg Q117A displayed on yeast (human, UniProt P80188 21-198).
T5 construct: Yeast display AGA2 fusion as m5
T5 chain: T1 chain with A15K, Q117A
Described as above.

Assay [6] addresses T6, NGAL rAg H118A displayed on yeast (human, UniProt P80188 21-198).
T6 construct: Yeast display AGA2 fusion as m5
T6 chain: T1 chain with A15K, H118A
The description is as above.

Assay [7] deals with T7, NGAL rAg A119G displayed on yeast (human, UniProt P80188 21-198).
T7 construct: Yeast display AGA2 fusion as m5
T7 chain: T1 chain with A15K, A119G
The assay is described as above.

B1: anti-NGAL monoclonal antibody 1-903-430 (antibody, V domains shown)
VH: KIQLVQSGPELKKPGETVKISCKASGYTFTNYGMNWVKQAPGKGLKWMGWININTGEPTYAEEFKGRFAFSLETSATTAFLQINNLKNEDTATYLCARDSYSGGFDYWGQGTIVTVSS
VL: DIVMTQSPSSLSVSAGEKVTLSCKSSQSLLISGDQKNYLAWYQQKPGQPPKLLIYGASTRDSGVPDRFTGSGSGADFTLTISSVQAEDLAVYYCQNDHSFPPTFGAGTKLELKR
B1: the “ΔKD (KD against KD of WT)” value in assay [1] and in assay [2] was more than 24500 fold in each case. In addition, the “ΔΔG Ala-WT” value in assay [1] and in assay [2] was more than 5.97 kcal/mol each time.

B2: anti-NGAL monoclonal antibody 1-2322-455 (antibody, V domains shown)
VH: EVQLVESGGGLVQPGGSLKLSCAASGFTFNNYYMSWVRQTPERRLEWVAYISSSGGSTYYSDSVRGRFTISRDTARNTLYLQMTSLKSEDTAMYYCARHFGDYSYFDYWGQGTTLTVSS
VL: DIQMTQSPASLSASVGETVTITCRASENFYSYLAWYQQKQGKSPQLLVYNAKTLAEGVPSRFSGSGSGTQFSLKINSLQPEDFGTYYCQHHYDIPLTFGAGTKLELKR
As for B2, the “EC50 (read off the curve)” value in assay [3] was approximately 0.006 nM; in assay [4], approximately 0.1 nM; in assay [5] it was approximately 0.03 nM; in assay [6], approximately 0.2 nM; in assay [7] it was approximately 0.007 nM.
